Target: SUMO2-KG-TAMRA (human, UniProt P61956 1-95, C-terminal glycine linked by an isopeptide bond to the lysine side chain of the KG-TAMRA peptide)
Assay: cell-based or functional assay

Sequence of SUMO2-KG-TAMRA (P61956 whole entry): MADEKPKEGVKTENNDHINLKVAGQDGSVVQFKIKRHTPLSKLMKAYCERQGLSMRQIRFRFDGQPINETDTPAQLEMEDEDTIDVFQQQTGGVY

B1: USPL1 catalytic domain (enzyme, human, UniProt Q5W0Q7 227-500, looked up)
chain: VQWKNAYALCWLDCILSALVHSEELKNTVTGLCSKEESIFWRLLTKYNQANTLLYTSQLSGVKDGDCKKLTSEIFAEIETCLNEVRDEIFISLQPQLRCTLGDMESPVFAFPLLLKLETHIEKLFLYSFSWDFECSQCGHQYQNRHMKSLVTFTNVIPEWHPLNAAHFGPCNNCNSKSQIRKMVLEKVSPIFMLHFVEGLPQNDLQHYAFHFEGCLYQITSVIQYRANNHFITWILDADGSWLECDDLKGPCSERHKKFEVPASEIHIVIWERK
- catalytic efficiency in the fluorescence-polarization cleavage assay, SUMO2-KG-TAMRA against SUMO1-KG-TAMRA: ~25 fold

From PMC10540217, “Native Semisynthesis of Isopeptide-Linked Substrates for Specificity Analysis of Deubiquitinases and Ubl Proteases” (Journal of the American Chemical Society, 2023)
